Measurements reported in patent publication US20140079706A1 (published 2014).

What was measured:
[1] = biological target: T1, human CSF-1R fragment D1-D3 (human, UniProt P07333 20-311); experiment: SPR Biacore T100, 37°C; antibody captured, D1-D3 injected, single cycle kinetics
T1 construct: Subcloned into pCMV-presS-HisAvitag expression vector
Protocol: Antibodies against CSF-1R were captured via amine coupled capture molecules. Using the single cycle kinetics five increasing concentrations of human CSF-1R fragment D1-D3 (SEQ ID NO: 66) were injected. Human CSF-1R fragment D1-D3 was subcloned into pCMV-presS-HisAvitag expression vector.
Single Cycle Kinetics was measured at a flow rate of 30 μL/min by five consecutive injections of the analyte with concentrations, c=7.8, 31.25, 125 500 and 2000 nM, without regeneration. Each injection was 30 seconds long and followed by a dissociation phase of 120 Seconds for the first four injections, and finally 1200 seconds for the highest concentration (=last injection).
Kinetic parameters were calculated by using the usual double referencing (control reference: binding of analyte to capture molecule; Flow Cell: subdomain CSF-1R concentration “0” as Blank) and calculation with model ‘titration kinetics 1:1 binding with draft’.

[2] = biological target: CSF-1R on cynomolgous monocytes (cynomolgous); experiment: cell-based or functional assay

T1 sequence (P07333 20-311 limits assumed): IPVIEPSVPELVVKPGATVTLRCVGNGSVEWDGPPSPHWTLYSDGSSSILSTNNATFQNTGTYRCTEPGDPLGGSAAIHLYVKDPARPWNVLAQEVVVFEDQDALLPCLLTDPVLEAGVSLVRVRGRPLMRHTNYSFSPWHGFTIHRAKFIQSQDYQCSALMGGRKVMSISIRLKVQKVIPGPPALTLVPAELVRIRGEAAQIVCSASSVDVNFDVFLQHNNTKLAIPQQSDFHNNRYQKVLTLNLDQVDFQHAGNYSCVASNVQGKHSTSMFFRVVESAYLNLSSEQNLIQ

B1: Mab 2F11 (antibody, V domains shown)
VH: QVQLKESGPGLVAPSQSLSITCTVSGFSLTTYDISWIRQSPGKGLEWLGVIWTDGGTNYNSPFMSRLSIRKDNSKSQVFLKMNRLQTDDTAIYYCVRDQRLYFDVWGAGTTVTVSS
VL: NIVMTQSPKSMSMSVGERVTLNCKASEDVNTYVSWYQQQPEQSPKLLIYGASNRYTGVPDRFTGGGSTTDFTLTISSVQAEDLADYFCGQSFSYPTFGTGTKLEIK
notes: Murine monoclonal antibody from hybridoma; also called muMab 2F11
binding result [1]: no binding (tested: up to 2000 nM D1-D3) | % inhibition (of survival) = (100% - % survival), cynomolgous monocytes, 5 µg/ml antibody [2]: 96% | % survival of cynomolgous monocytes at 5 µg/ml antibody (150 ng/ml huCSF-1, CellTiterGlo) [2]: 4%

B2: Mab 1G10 (antibody, V domains shown)
VH: RVQLKESGPGLVAPSQSLSITCTVSGFSLTSYDISWIRQSPGKGLEWLGVIWSGGGTNYNSPFMSRLRISKDDSRSQVFLKVNRLQTDDTAIYYCVRDLRLYFDVWGAGTTVTVSS
VL: KIVMTQSPKSMSVSVGERVSLSCKASEDVGTYVSWYQQKPEQSPKLLIYGSSNRYTGVPDRFTGSGSATDFTLTISSVQAEDLADYSCGQSFTYPTFGTGTKLEIK
notes: Murine monoclonal antibody
binding result [1]: no binding (tested: up to 2000 nM D1-D3) | % inhibition (of survival) = (100% - % survival), cynomolgous monocytes, 5 µg/ml antibody [2]: 98% | % survival of cynomolgous monocytes at 5 µg/ml antibody (150 ng/ml huCSF-1, CellTiterGlo) [2]: 2%

B3: Mab 2E10 (antibody, V domains shown)
VH: QVQLKESGPGLVAPSKSLSITCTVSGSSLDSFDISWIRQSPGKGLEWLGVIWTGGGTNYNSGFMSRLRITKDNSKSQVLLKMNSLQSDDTAIYYCVRDPRLYFDVWGAGTTVTVSS
VL: NIVMTQSPKSMSMSVGERVTLSCKASEDVVTYVSWYQQKPDQSPKLLIYGASNRYTGVPDRFTGSGSATDFTLTISSVQAEDLADYYCGQTFSYPTFGTGTKLEIK
notes: Murine monoclonal antibody
binding result [1]: no binding (tested: up to 2000 nM D1-D3) | % inhibition (of survival) = (100% - % survival), cynomolgous monocytes, 5 µg/ml antibody [2]: 83% | % survival of cynomolgous monocytes at 5 µg/ml antibody (150 ng/ml huCSF-1, CellTiterGlo) [2]: 17%

B4: Mab 2H7 (antibody, V domains shown)
VH: QVQLKESGPGLVAPSKSLSITCTVSGSSLDSFDISWIRQPPGKGLEWLGVIWTGGGTNYNSGFMSRLRISKDNSKSQVFLKMSSLQSDDTAIYYCVRDPRLYFDVWGAGTTVTVSS
VL: NIVMTQSPKSMSMSVGERVTLSCKASEDVVTYVSWYQQKPEQSPKLLIYGASNRYTGVPDRFTGSGSATDFTLTISSIQAEDLADYYCGQTFSYPTFGTGTKLEIK
notes: Murine monoclonal antibody
% inhibition (of survival) = (100% - % survival), cynomolgous monocytes, 5 µg/ml antibody [2]: 92% | % survival of cynomolgous monocytes at 5 µg/ml antibody (150 ng/ml huCSF-1, CellTiterGlo) [2]: 8%
